In US20050048066A1 (published 2005):

Molecular target: HLA-DR1 (human)
Assay: competitive binding assay; DR1 format not described

| IC50 | Binder |
| --- | --- |
| 1.75 µM | HFVMQRLPLYFIVN (peptide, UniProt P02708 224-237, looked up) [AChRα peptide 204-217] |
| 11.2 µM | QLIQLINVDEVNQI (peptide, UniProt P02708 56-69, looked up, range 36-49; also called AChRα 36-49) [AChRα peptide 36-49] |
| 11.7 µM | KYVAMVMDHILLGV (peptide, UniProt P02708 420-433, looked up) [AChRα peptide 400-413] |
